# Source: PMC5785340, “MaRAP2‐4, a waterlogging‐responsive ERF from Mentha, regulates bidirectional sugar transporter AtSWEET10 to modulate stress response in Arabidopsis”
# B1: AtSWEET10 promoter probe with DRE only (dsDNA)
# DNA 1: AATTTCGCATGCCGACATCAATGTGCGCACAACA
# DNA 2: TGTTGTGCGCACATTGATGTCGGCATGCGAAATT
# B2: AtSWEET10 promoter probe with overlapping DRE and GCC (dsDNA)
# DNA 1: ATGATTCACGGCCGCCGACGCCGTTCGTTACCA
# DNA 2: TGGTAACGAACGGCGTCGGCGGCCGTGAATCAT
# Molecular target: MaRAP2-4 (Mentha arvensis, UniProt A0A1Z2X6Y3 1-315)
# Sequence (A0A1Z2X6Y3 entry or part of it): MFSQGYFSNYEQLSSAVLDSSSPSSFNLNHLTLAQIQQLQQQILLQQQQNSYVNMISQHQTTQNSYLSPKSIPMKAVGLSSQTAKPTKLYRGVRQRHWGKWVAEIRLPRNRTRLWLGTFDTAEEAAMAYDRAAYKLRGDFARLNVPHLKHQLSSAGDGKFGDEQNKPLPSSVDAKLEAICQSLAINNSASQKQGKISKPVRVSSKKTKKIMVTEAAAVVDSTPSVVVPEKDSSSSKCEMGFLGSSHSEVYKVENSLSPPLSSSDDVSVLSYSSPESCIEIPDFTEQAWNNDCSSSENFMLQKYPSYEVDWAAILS
# Experiment: EMSA; DIG Gel Shift Kit 2nd Generation (Roche), manufacturer's protocol; buffer, pH and temperature not stated
# Conditions: protein: recombinant; tags: GST (pGEX-4T2); label: DIG
row,Binder,binding result
1,B1,binds
2,B2,binds
